Measurements reported in article PMC5737377, “Structural insights into RapZ-mediated regulation of bacterial amino-sugar metabolism” (Nucleic Acids Research, 2017).

Columns and labels:
[1] = test system: RapZ-CTD (Strep-tag cleaved) (Escherichia coli); experiment: BLI; conditions: 1 mM Mg2+; Kd values only in figure; incomplete dissociation; 5' biotin; BLI: 25 mM Tris pH 7.5, 50 mM NaCl, 50 mM KCl, 1 mM MgCl2, 1 mM DTT, temperature not stated; EMSA (GlmY): 10 mM Tris pH 7.0, 100 mM KCl, 10 mM MgCl2, 1 ug …; scale: fold higher affinity than full-length RapZ
[2] = test system: RapZ full length (Strep-tag cleaved) (Escherichia coli); experiment: BLI; conditions: 1 mM Mg2+; Kd values only in figure; incomplete dissociation; 5' biotin; BLI: 25 mM Tris pH 7.5, 50 mM NaCl, 50 mM KCl, 1 mM MgCl2, 1 mM DTT, temperature not stated; EMSA (GlmY): 10 mM Tris pH 7.0, 100 mM KCl, 10 mM MgCl2, 1 ug …
[3] = biological target: the molecule itself; experiment: SEC-MALS; full-length RapZ alone, 30 μM on Superdex 200 10/300 GL, 25°C
[4] = biological target: the molecule itself; experiment: SEC-MALS + AUC; RapZ-CTD alone. SEC-MALS: 30 μM on Superdex 200 10/300 GL, 25 mM Tris pH 7.5, 200 mM KCl, 1 mM TCEP, 25°C. Sedimentation velocity AUC: 0.5–1 mg/ml, 20°C, 50 000 rpm

Molecule | relative binding affinity [1] | relative binding affinity (relative Kd-type affinity (reference)) [2] | stoichiometry N [3] | stoichiometry N [4]
GlmY processed (BLI) | 2 | 1 | – | –
GlmZ full length (BLI) | 2 | 1 | – | –
GlmZ processed (BLI) | 2 | 1 | – | –
full length Escherichia coli RapZ (natural protein, UniProt P0A894 1-284, looked up, RapZ (formerly YhbJ), Escherichia coli, full length, residues 1-284; also called YhbJ; full-length RapZ (1–284); source: E. coli Rosetta, purified (Strep Trap, heparin, gel filtration)) MVLMIVSGRSGSGKSVALRALEDMGFYCVDNLPVVLLPDLARTLADREISAAVSIDVRNMPESPEIFEQAMSNLPDAFSPQLLFLDADRNTLIRRYSDTRRLHPLSSKNLSLESAIDKESDLLEPLRSRADLIVDTSEMSVHELAEMLRTRLLGKRERELTMVFESFGFKHGIPIDADYVFDVRFLPNPHWDPKLRPMTGLDKPVAAFLDRHTEVHNFIYQTRSYLELWLPMLETNNRSYLTVAIGCTGGKHRSVYIAEQLADYFRSRGKNVQSRHRTLEKRKP | – | – | 4 | –
RapZ-CTD (154–284) (domain or fragment, Escherichia coli, UniProt P0A894 154-284, looked up, RapZ, Escherichia coli, C-terminal domain, residues 154-284; also called C-terminal domain of RapZ; source: E. coli Rosetta, purified (Strep Trap, MonoS, gel filtration)) GKRERELTMVFESFGFKHGIPIDADYVFDVRFLPNPHWDPKLRPMTGLDKPVAAFLDRHTEVHNFIYQTRSYLELWLPMLETNNRSYLTVAIGCTGGKHRSVYIAEQLADYFRSRGKNVQSRHRTLEKRKP | – | – | – | 2
